In the nanobody polyreactivity screen of Harvey et al. (2022):

Assay: yeast display, Sf9 membrane polyspecificity reagent, FACS + sequencing; frameworks hold sequencing errors
Outline: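 Nanobodies from a synthetic yeast display library (Saccharomyces cerevisiae BJ5465), induced 36–48 hours with galactose, were stained 1 hour at 4 °C with 10% biotinylated, detergent-solubilized Sf9 membrane reagent, enriched on streptavidin microbeads, then FACS-sorted. Anti-HA (expression) and streptavidin (reagent binding) fluorescence set low and high (top ~1%) gates. Polyreactivity labels come from the gate of origin. Genes were colony-PCR amplified, MiSeq 2 × 250 sequenced and filtered by CDR length.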

Sequence	polyreactivity (PSR sort gate)
QVQLVESGGGLVQAGGSLRLSCAASGRIFAANVMGWYRQAPWKERELVAAISWNGGSTYYADSVKGRFTISRDNAKNTVYLQMNSLKPEDTAVYYCAVRGSYRGWYDYWGQGTQVTVSS	high polyreactivity
QVQLVESGGGLDQAGGSLRLSCAASGFIFNKYALGRSRQAPGTEREFVATIRRDGSTNYADSVKGRFTISRDNAKNTVYLQMNSLKPEDTAVYSCAKRPWYHADWWDDHWGQGTQVTVSS	high polyreactivity
QVQLVESGGGLVQAGGSLRLSCAASGRIFHSKAMGWYRQAPGKERELVAAITWSTGRTYYADSVKGRFTISRDNAKNTVYLQMNSLKPEDTAVYYCFRFSYYTGDYWGQGTQVTVSS	high polyreactivity
QVQLVESGGGLVQAGGSLRLSCAASGISFGVYSLGWYRQAPGKERELVAAISSSGTSTYYADSVKGRFTISRDNAKNTVYLQMNSLKPEDTAVYYCAADYKRNQEVDYWGQGTQVTVSS	high polyreactivity
QVHLVESGGGLVQAGGILRLSCAASMVWYRQAPGKERELVAAINTRTGTTYYADSVKGRFTISRDNAKNTVYLQMNSLKPEDTAVYYCAARTYRTRYYYWGQGTQVTVSS	high polyreactivity
QVQLVESGGGLVQAGGGLRLSFPASGRTFTVNAMGWSRQSPGKERELVATITYGGGSRYYADSVKGRFTISRDNAKNSVYLQMNSLKPEDTAVYYCAARSDNYHVYYFKRWGKYYSWGQGTQVTVSS	low polyreactivity
QVQLVESGGGLVQAGGSLRLICAASGYTLATYTMRWYIQAPGKERELVAAISFGGSTYYADSVKGRFTISRDNAKNTVYLQMNSLKPEDTAVYYCAVYGDSYWGAYYYSDGYWGQGTQVTVSS	low polyreactivity
QVQLVESGGGLVQAGGSLRLSCAASGRIFPYMGWYRQAPGKERELVAAINASGGRTYYADSVKGRFTISRDNAKNTVYLQMNSLKPEDTAVYYCNAVWSSDTYTHPQYDYWGQGTQVTVSS	high polyreactivity
QVQLVESGGGLVQAGGSLRLSCAASGFIFSRNAMGWYRQAPGKERELVATISKRGGSTYYADSVKGRFTISRDNAKNTVYLQMNSLKPEDTAVYYCAATGGILSTYDYWGQGTQVTVSS	high polyreactivity
QVQLVESGGGLVQAGGSLRLSCAASGSTFRYNAMGWYRQAPGKERELVAAITSGGTTNYADSVKGRFTISRDNAKNTVYLQMNSLKPEDTAVYYCAKKRPGFLRYGSIGEFQYDYWGQGTQVTVSS	low polyreactivity
QVQLVESGGGLVQAGGSLRLSCAASGRTFAWYTMGWYRQAPGKERELVAAISGSGGSTYYADSVKGRFTISRDNAKNTVYLQMNSLKPEDTAVYYCARRVDSYYGHTRYYYWGQGTQVTVSS	high polyreactivity
QVQLVESGGGLVQAGGSLRLSCAASGSTFRTNGMGWYRQAPGKESELVAAITRGTSTNYADSVKGRFTISRDNAKNTVYLQMNSLKPEDTAVYYCAADGPDRYHYTTTRYRYDYWGQGTQVTVSS	low polyreactivity
QVQLEESGGGLVQAGGSLRLSCAASGSISSFNTMGWYRQAPGKERELVAAITRDGSTYYADSVKGRFTISRDNAKNTVYLQMNSLKPEDTAVYYCAARGWYATWLYYYWGQGTQVTVSS	high polyreactivity
QVQLVESGGGLVHAGGSLRLSCAASGRIFYQYAMGWYRQAPGKERELVAAIRYRDDGTYYADSVKGRLTISRDNAKNTVYLQMNSLKPEDTAVYYCAGKQWGRYGYWGQGTQVTVSS	high polyreactivity
QVQLVESGGGLVQAGGSLRLSCAASGRTLASNAMGWFRQSPGKERELVAAINRGGSTYYADSVKGRFTISRDNAMNTVYLQMNSLKPEDTAVYYCAVDRYRYPFDYWGQGTQVTVSS	low polyreactivity
QVQLVDSGGGLVQAGGSLRLSCAASGRIFLYNGMGWYRQAPGKERELVAGIITGGNTNYADSVKGRFTISRDNAKNTVYLQMNSLKPEDTAVYYCAAEVIVYGWSPDYDYWGQGTQVTLSS	low polyreactivity

Sequence	polyreactivity (PSR sort gate)
HVQLQERGGGLVQAGGSLRLSCAASGSIFQATYMGWYRQAPGKEREFVASITYGSITNYADSVKGRFTIGRDNAKDTLYLQMNSLKPEDTAVYYCAVDRHYIPAFHYWGQCTQVTVSS	low polyreactivity
QVQLVETGGGLVQAGGSLRLSCAASGSTFGWNAMGWYRQAPGKERELVAAITGGGSTYYADSVKGRFTISRDNAKNTVYLQMNSLKPEDTAVYYCEGDYWGQGTQVTVSS	low polyreactivity
QDQLVESDAGLVQAGGSLRLSCAASGRIFLGNAMGRSIQPPGNERELVAAITYSGRSTYYSDSVKGRLTISRDNAKNTLYLQMNSLKPEDTAVYYCAARQYWTTDLPFQRYYYWGPGTQVTVSS	low polyreactivity
QVQLVESGGGLVQAGGSLRLSCAASGTTFDSNGRGWYREAPGKERELVAAIRSGDSTYYADSVKGRCTISRDNAKNTVYLQMISLKPEDTAVYYCNKDEATFLSKDDYWGQGTQVTVSS	low polyreactivity
QVQLVESGGGLVQAGGSLRLSCAASGSIFWSNAMGWYRQAPGKERELVAASSSGGSTYADSVKGRFTISRDTAKNTVYLQMNSLKPEDNAVYDCNARDYSVGRNDYWGQGTQVTVSS	low polyreactivity
QVQLVESGGGLVQAGGSLRLSCAASGSTFVWYDMGWYRQAPGKERELVATITSGGITTYADSVKGRFTISRDNAKNTVYLQMNSPKPEDTAVYYCNADLYYWLRYYDRNEYRGQGTQVTVSS	low polyreactivity
QVQLEESGGGLVQAGGSLRLSCAASGIIIVRNAMGWYRQAPGKEREFVAAISSSGGSTYYADSVKGRFTISRDNGKNTVYLQMNSLNPEDTAVYNCNARHRQWARGYWGQGTQVTVSS	high polyreactivity
QVQLVESGGGLVQAGGSLRLSCAASGSIFKQNNMGWYRQAPGKERELVAAISSGGSTYYADSVKGRFTISRDNAKNTVYLQMNSLKPEDTAVYYCAKYYDWDYYLPLEGDYWGQGTQVTVSS	low polyreactivity
QVQLVESGVGLVQAGGSLRVSCAASGRTFRYYAMGWYREAPGKERELVAAISSGTRTNYADSVTGRFTISRDNAKNTVYLQMNSLKPEDTAVYYCNAVTRRSAQGGHDYWGQGTQVTVSS	high polyreactivity
QVQLVESGGGLVQAGGSLRLSCAASGRIFKYYAMGWFRQAPGKERELVAAISSGSSTNYADSVKGRFTISRDTAKNTVYLQMNSLKPEDTAVYYCAAKYYRSKFDFWGQGTQVTVSS	high polyreactivity
QVQLVESGGGLDQAGGSLRLSGAASGRILWYNAMGWYRQAPGKERELVAAISWTGGSTYYADSVKGRFTISRDNAKNTVYLQMNSLKPEDTAVYYCNVDTPYTQGFDQRQGYTFDYWGQGTQVTVSS	low polyreactivity
QVQLVESGGGLVQAGGSLRLSCAASGRIIGRYAMGWYRQAPGKERELVAGITIRGGSTYYADSVKGRFTISRDNAKNTVYLQMNSLKPEDTAVYYCAARHGSGFRYYPGHAGGYWGQGTQVTVSS	low polyreactivity
QVQLVESGGGLVQAGGSLRLSCAASGSTFAPYAMGWYRQAPGKERELVAAIRSSGGSTYYADSVKGRFTISRDNAKNTVYLQMNSLKPEDTAVYYCSDDYYTSADYVDYYYWGQGTQVTVSS	low polyreactivity
QVQLVESGGGLVQAGGSLRISCAASGFTFNANAMGWYRQAPGNERELVAAISLSGGRTYYADSVKGRFTISRDNAKNTVYLQMNSLKPEDTAVYYCAASPDGSFRRFSRVVSGDYWGQGTQVTVSS	high polyreactivity
QVQLVESGGGLDQAGGSLRLSCAASGSTFYYNAMGWYRQAPGKERELVAAISSDGSTNYADSVKGRFTISRDNAKNTVYLQMNSLKPEDTAVYYCAKKDFYFAPSPGYYRSRDYWGQGTQVTVSS	low polyreactivity
QVQLVESGGGSVQAGGSLRLSCAASGYIFGVYDMGWYRQAPGKERELVAAISSGGSTNYADSVKGRFTISRDNAKNTVYLQMNSLKPEDTAVYYCNADYIFYYEYDYWGQGTQVTVSS	low polyreactivity
